Laboratory results as given in patent US8609611B2, “Synthesis of small particles” (MAP Pharmaceuticals, Inc., priority 2001, dated 2013).
Where two headings read alike, the source gives them in different places.

Tests used:
[1] = Size exclusion chromatography: biochemical integrity, monomer content; type: physicochemical; details: by anti-solvent used in processing
Description: A protein-Pak 125 column (Waters, USA) was used for insulin. The mobile phase consisted of 50 mM sodium phosphate buffer at pH 3 with 300 mM sodium chloride. The powder samples were dissolved to prepare 1 mg/mL solution in deionised water by gentle shaking for 10 minutes to have complete dissolution. The supernatant was filtered through […] membrane filter and then injected into the HPLC column. […] The software Millennium 3.5 was used in the quantification of the monomer content.

[2] = Aerosol performance by Cascade Impactor (5 stage Marple-Miller Impactor), fine particle mass; type: physicochemical; details: 60 L/min, Dinkihaler, FIG. 6
Description: In order to determine the aerosol performance of the collected fine protein particles, in vitro testing of the particles was assessed using a 5 stage Marple-Miller Impactor (Model 160, MSP Corporation, USA) with cut-off diameters of 10.0, 5.0, 2.5, 1.25, and 0.625 μm. The Marple-Miller impactor consisted of a stainless steel inlet throat, five impaction stages and an integral filter stage. The stages were previously coated with propylene glycol/methanol (50:50) to prevent particle bounce, thus minimising the probability of carry over of coarse particles onto lower stages.
A mass of 10-20 mg of insulin was weighed into a gelatin capsule (size 3, Park Davis, Australia) and was immediately dispersed by a powder inhaler device, Dinkihaler (Aventis, Frankfurt, Germany) into the Marple Miller Impactor at 60 L/min using a vacuum source (ERWEKA GMBH, Germany). The fraction of the protein recovered in each stage was calculated by measuring the absorbance of the protein solution against the absorbance of a standard 1% solution of insulin.

[3] = Size of precipitated primary particles (SEM images); type: physicochemical
Excerpt: These fine insulin particles may aggregate to form larger particles due to intermolecular interaction between the molecules.

[4] = Median particle size by laser diffraction; type: physicochemical
Excerpt: These fine insulin particles may aggregate to form larger particles due to intermolecular interaction between the molecules. […] Insulin precipitated as nano-sized particles, was also agglomerated to micron-sized particles.

[5] = values reported in the literature; cited from earlier work

Row | Substance | retention of biological activity as indicated by the in vitro test for monomer content [1] | fine particle fraction (%<5 μm) [2] | size of nano-sized particles as precipitated ([3]; modified (dual chamber) ASES apparatus) | size of nano-sized particles as precipitated ([3]; single-stage apparatus) | median particle size (laser diffraction) of agglomerated powder [4] [μm] | median particle size (laser diffraction) of agglomerated powder ([4]; listed as Insulin) | maximum FPM for insulin obtained by other methods [5] [%]
1 | CO2-ethanol: Insulin particles precipitated from aqueous solution using CO2-20 mol % ethanol as anti-solvent | significant deactivation | – | – | – | – | – | –
2 | insulin: Low endotoxin bovine insulin (Sigma), micronised from aqueous solution by the ASES process into fine particles | – | at least 42% | 50-500 nm | 50-500 nm | 5 | about 5 μm | ≤ 10
3 | Ethane-ethanol | retention of biological activity | – | – | – | – | – | –
